Measurements from paper PMC8964682, “Structural and biochemical characterization of in vivo assembled Lactococcus lactis CRISPR-Csm complex” (Communications Biology, 2022).

B1: Lactococcus lactis Csm3 Asp30Ala, subunit of the LlCsm (D14N)1(D30A)3 complex (natural protein)
chain: MKLVIEGTIVLKTGMHIGGSSDFSAIGAVASPVVRDTLTRLPLIPGSSLKGKMRYLLAKELNNGILLNEPNNDQDEILRLFGSSEKDKIRRARLKFNDIKLSNLAELETFNVSSTEVKFENTINRKTAVANPRQIERVIAGSKFDFEIFYNLDDIKEVEKDFENIKQGFDLLEFDYLGGHGTRGSGRIAFENLSVITAVGNFEKINTLNEILGA
notes: Csm3 of the plasmid-encoded (pKLM) Type III-A CRISPR-Cas system of Lactococcus lactis, with the RNase-site mutation D30A; Csm3.1 is the Csm3 copy closest to Csm4; There are four copies in CTR-43, NTR and apo, and three in CTR-32; also called Csm3.1; Csm3.2
B2: Lactococcus lactis Csm2 with N-terminal His6-tag, subunit of the LlCsm complex (natural protein)
chain: TELKIGNEKVNSTNFGDFAEKAIRGINHKPFVNSKGGEQKITTSKIRGILELVNKVYNRVINTNDVELSENILADIAYIKVKIAYESGREPVVKDFIQRTAFTAAITDVMNQRTRESFLLFARYVESLIAYFKFYGGKD
notes: Csm2 of the plasmid-encoded (pKLM) Type III-A CRISPR-Cas system of Lactococcus lactis; The csm2 gene encoded the His6-tag in all variants of LlCsm (wild type and Csm1 D14N / Csm3 D30A); Removal of the tag is not mentioned; also called LlCsm2; not shown: His6, N-terminal, kept

Columns and labels:
[1] = target: the molecule itself; test: cryo-EM structure; co-purified LlCsm (Csm1 D14N, Csm3 D30A)-crRNA incubated with CTR at 1:2, 37 °C, 60 min, then SEC; no ATP; two classes, CTR-43 (3.0 Å) and CTR-32 (3.3 Å)
[2] = target: the molecule itself; test: cryo-EM structure; co-purified LlCsm (Csm1 D14N, Csm3 D30A)-crRNA incubated with NTR at 1:2, 37 °C, 60 min, then SEC; 3.4 Å

Row | Protein | stoichiometry N [1] | stoichiometry N [2]
1 | B1 | 3 | 4
2 | B2 | 2 | 3
